Each molecule was assayed on 3-methylcrotonic acid.
Format: biochemical, Yersinia frederiksenii
Design: key: “+” representing a low increase in activity; “++++” representing a high increase in activity

Row | Molecule | Activity relative to WT
1 | I283T-P284D-N287P-S322T-N388M-E421V-R422F-C430N-L432F-L434W-S436N-H461V-dG462-A463T (protein) MFLKSLREQINLLKRQGDLRIINRPVDSYLEAAAIIRRSTETKAPVPLMTNIKGYPGCSIVGGLAALSSNPEYPLSRVAMSLGLSTTASAQSIVQYLIDGLKKTPYLPVEIDSNSAPCKQNILRGEDASLAHFPIPQVHQHDGNRYVNTWGVFIVESPDGQWCNWSIQRVQYLNDRQMIALVFPSQHISDIWEEWVKIGKPMPYALVQGCEPIVPYIAGLPLLERNVNEAEYIGALYGKGIEVVKCETHDLRVPASSEVVIEGYFAITREGVEGPFGEFAGYTDNEPSLQPILSITAISWQDDPIWPVVAEGKPVDEYHTCTGIGDAAAIQNVLLTANLPVSFVWVPLYSACHLMIVSINRHWRQTHPDLTSEQLTKKVGDVIHQTRMSIKLPKIVVLDDDVDPADTESLLWALATRIHPVFKRYFYESNIFPWLNCYSEEERHNRKGKRVIIDALLPENVGTISSFDYAYPDDIKQRVLMHWETDFSHD | ++++
2 | I283T-P284D-N287P-S322T-N388M-E421V-C430N-L432F-L434W-S436N-dG462 (protein) MFLKSLREQINLLKRQGDLRIINRPVDSYLEAAAIIRRSTETKAPVPLMTNIKGYPGCSIVGGLAALSSNPEYPLSRVAMSLGLSTTASAQSIVQYLIDGLKKTPYLPVEIDSNSAPCKQNILRGEDASLAHFPIPQVHQHDGNRYVNTWGVFIVESPDGQWCNWSIQRVQYLNDRQMIALVFPSQHISDIWEEWVKIGKPMPYALVQGCEPIVPYIAGLPLLERNVNEAEYIGALYGKGIEVVKCETHDLRVPASSEVVIEGYFAITREGVEGPFGEFAGYTDNEPSLQPILSITAISWQDDPIWPVVAEGKPVDEYHTCTGIGDAAAIQNVLLTANLPVSFVWVPLYSACHLMIVSINRHWRQTHPDLTSEQLTKKVGDVIHQTRMSIKLPKIVVLDDDVDPADTESLLWALATRIHPVRKRYFYESNIFPWLNCYSEEERHNRKGKRVIIDALLPENHGAISSFDYAYPDDIKQRVLMHWETDFSHD | ++++
3 | I283T-P284D-N285M-N287T-S322T-N388M-K394R-C430A-L432F-L434W-S436N-G462P-A463P-I464P (protein) MFLKSLREQINLLKRQGDLRIINRPVDSYLEAAAIIRRSTETKAPVPLMTNIKGYPGCSIVGGLAALSSNPEYPLSRVAMSLGLSTTASAQSIVQYLIDGLKKTPYLPVEIDSNSAPCKQNILRGEDASLAHFPIPQVHQHDGNRYVNTWGVFIVESPDGQWCNWSIQRVQYLNDRQMIALVFPSQHISDIWEEWVKIGKPMPYALVQGCEPIVPYIAGLPLLERNVNEAEYIGALYGKGIEVVKCETHDLRVPASSEVVIEGYFAITREGVEGPFGEFAGYTDMETSLQPILSITAISWQDDPIWPVVAEGKPVDEYHTCTGIGDAAAIQNVLLTANLPVSFVWVPLYSACHLMIVSINRHWRQTHPDLTSEQLTKKVGDVIHQTRMSIKLPRIVVLDDDVDPADTESLLWALATRIHPERKRYFYESAIFPWLNCYSEEERHNRKGKRVIIDALLPENHPPPSSFDYAYPDDIKQRVLMHWETDFSHD | ++++
4 | I283T-P284D-i284aP-N287P-S322T-N388M-C430N-L432F-L434W-S436N-dG462 (protein) MFLKSLREQINLLKRQGDLRIINRPVDSYLEAAAIIRRSTETKAPVPLMTNIKGYPGCSIVGGLAALSSNPEYPLSRVAMSLGLSTTASAQSIVQYLIDGLKKTPYLPVEIDSNSAPCKQNILRGEDASLAHFPIPQVHQHDGNRYVNTWGVFIVESPDGQWCNWSIQRVQYLNDRQMIALVFPSQHISDIWEEWVKIGKPMPYALVQGCEPIVPYIAGLPLLERNVNEAEYIGALYGKGIEVVKCETHDLRVPASSEVVIEGYFAITREGVEGPFGEFAGYTDNEPSLQPILSITAISWQDDPIWPVVAEGKPVDEYHTCTGIGDAAAIQNVLLTANLPVSFVWVPLYSACHLMIVSINRHWRQTHPDLTSEQLTKKVGDVIHQTRMSIKLPKIVVLDDDVDPADTESLLWALATRIHPERKRYFYESNIFPWLNCYSEEERHNRKGKRVIIDALLPENHGAISSFDYAYPDDIKQRVLMHWETDFSHD | ++++
5 | I283T-P284D-N287P-S322T-N388M-R422F-C430N-L432F-L434W-S436N-dG462 (protein) MFLKSLREQINLLKRQGDLRIINRPVDSYLEAAAIIRRSTETKAPVPLMTNIKGYPGCSIVGGLAALSSNPEYPLSRVAMSLGLSTTASAQSIVQYLIDGLKKTPYLPVEIDSNSAPCKQNILRGEDASLAHFPIPQVHQHDGNRYVNTWGVFIVESPDGQWCNWSIQRVQYLNDRQMIALVFPSQHISDIWEEWVKIGKPMPYALVQGCEPIVPYIAGLPLLERNVNEAEYIGALYGKGIEVVKCETHDLRVPASSEVVIEGYFAITREGVEGPFGEFAGYTDNEPSLQPILSITAISWQDDPIWPVVAEGKPVDEYHTCTGIGDAAAIQNVLLTANLPVSFVWVPLYSACHLMIVSINRHWRQTHPDLTSEQLTKKVGDVIHQTRMSIKLPKIVVLDDDVDPADTESLLWALATRIHPEFKRYFYESNIFPWLNCYSEEERHNRKGKRVIIDALLPENHGAISSFDYAYPDDIKQRVLMHWETDFSHD | ++++
6 | N287I-N388M-K394R-C430N-L432F-L434W-S436N (protein) MFLKSLREQINLLKRQGDLRIINRPVDSYLEAAAIIRRSTETKAPVPLMTNIKGYPGCSIVGGLAALSSNPEYPLSRVAMSLGLSTTASAQSIVQYLIDGLKKTPYLPVEIDSNSAPCKQNILRGEDASLAHFPIPQVHQHDGNRYVNTWGVFIVESPDGQWCNWSIQRVQYLNDRQMIALVFPSQHISDIWEEWVKIGKPMPYALVQGCEPIVPYIAGLPLLERNVNEAEYIGALYGKGIEVVKCETHDLRVPASSEVVIEGYFAITREGVEGPFGEFAGYIPNEISLQPILSITAISWQDDPIWPVVAEGKPVDEYHTCSGIGDAAAIQNVLLTANLPVSFVWVPLYSACHLMIVSINRHWRQTHPDLTSEQLTKKVGDVIHQTRMSIKLPRIVVLDDDVDPADTESLLWALATRIHPERKRYFYESNIFPWLNCYSEEERHNRKGKRVIIDALLPENHGAISSFDYAYPDDIKQRVLMHWETDFSHD | +
7 | I283T-P284D-N285M-N287T-S322T-N388M-K394R-C430A-L432F-L434W-S436N-C437M-G462P-A463P (protein) MFLKSLREQINLLKRQGDLRIINRPVDSYLEAAAIIRRSTETKAPVPLMTNIKGYPGCSIVGGLAALSSNPEYPLSRVAMSLGLSTTASAQSIVQYLIDGLKKTPYLPVEIDSNSAPCKQNILRGEDASLAHFPIPQVHQHDGNRYVNTWGVFIVESPDGQWCNWSIQRVQYLNDRQMIALVFPSQHISDIWEEWVKIGKPMPYALVQGCEPIVPYIAGLPLLERNVNEAEYIGALYGKGIEVVKCETHDLRVPASSEVVIEGYFAITREGVEGPFGEFAGYTDMETSLQPILSITAISWQDDPIWPVVAEGKPVDEYHTCTGIGDAAAIQNVLLTANLPVSFVWVPLYSACHLMIVSINRHWRQTHPDLTSEQLTKKVGDVIHQTRMSIKLPRIVVLDDDVDPADTESLLWALATRIHPERKRYFYESAIFPWLNMYSEEERHNRKGKRVIIDALLPENHPPISSFDYAYPDDIKQRVLMHWETDFSHD | ++++
8 | I283T-N285P-N287T-Q290E-S322T-N388M-K394R-C430A-L432F-L434W-S436N-dG462 (protein) MFLKSLREQINLLKRQGDLRIINRPVDSYLEAAAIIRRSTETKAPVPLMTNIKGYPGCSIVGGLAALSSNPEYPLSRVAMSLGLSTTASAQSIVQYLIDGLKKTPYLPVEIDSNSAPCKQNILRGEDASLAHFPIPQVHQHDGNRYVNTWGVFIVESPDGQWCNWSIQRVQYLNDRQMIALVFPSQHISDIWEEWVKIGKPMPYALVQGCEPIVPYIAGLPLLERNVNEAEYIGALYGKGIEVVKCETHDLRVPASSEVVIEGYFAITREGVEGPFGEFAGYTPPETSLEPILSITAISWQDDPIWPVVAEGKPVDEYHTCTGIGDAAAIQNVLLTANLPVSFVWVPLYSACHLMIVSINRHWRQTHPDLTSEQLTKKVGDVIHQTRMSIKLPRIVVLDDDVDPADTESLLWALATRIHPERKRYFYESAIFPWLNCYSEEERHNRKGKRVIIDALLPENHGAISSFDYAYPDDIKQRVLMHWETDFSHD | ++++
9 | I283T-N285P-N287T-Q290E-S322T-N388M-K394R-C430A-L432F-L434W-S436N-dA463 (protein) MFLKSLREQINLLKRQGDLRIINRPVDSYLEAAAIIRRSTETKAPVPLMTNIKGYPGCSIVGGLAALSSNPEYPLSRVAMSLGLSTTASAQSIVQYLIDGLKKTPYLPVEIDSNSAPCKQNILRGEDASLAHFPIPQVHQHDGNRYVNTWGVFIVESPDGQWCNWSIQRVQYLNDRQMIALVFPSQHISDIWEEWVKIGKPMPYALVQGCEPIVPYIAGLPLLERNVNEAEYIGALYGKGIEVVKCETHDLRVPASSEVVIEGYFAITREGVEGPFGEFAGYTPPETSLEPILSITAISWQDDPIWPVVAEGKPVDEYHTCTGIGDAAAIQNVLLTANLPVSFVWVPLYSACHLMIVSINRHWRQTHPDLTSEQLTKKVGDVIHQTRMSIKLPRIVVLDDDVDPADTESLLWALATRIHPERKRYFYESAIFPWLNCYSEEERHNRKGKRVIIDALLPENHGAISSFDYAYPDDIKQRVLMHWETDFSHD | ++++
10 | I283T-N285P-N287T-Q290E-S322T-N388M-K394R-C430A-L432F-L434W-S436N-dH461 (protein) MFLKSLREQINLLKRQGDLRIINRPVDSYLEAAAIIRRSTETKAPVPLMTNIKGYPGCSIVGGLAALSSNPEYPLSRVAMSLGLSTTASAQSIVQYLIDGLKKTPYLPVEIDSNSAPCKQNILRGEDASLAHFPIPQVHQHDGNRYVNTWGVFIVESPDGQWCNWSIQRVQYLNDRQMIALVFPSQHISDIWEEWVKIGKPMPYALVQGCEPIVPYIAGLPLLERNVNEAEYIGALYGKGIEVVKCETHDLRVPASSEVVIEGYFAITREGVEGPFGEFAGYTPPETSLEPILSITAISWQDDPIWPVVAEGKPVDEYHTCTGIGDAAAIQNVLLTANLPVSFVWVPLYSACHLMIVSINRHWRQTHPDLTSEQLTKKVGDVIHQTRMSIKLPRIVVLDDDVDPADTESLLWALATRIHPERKRYFYESAIFPWLNCYSEEERHNRKGKRVIIDALLPENHGAISSFDYAYPDDIKQRVLMHWETDFSHD | ++++

— US20250327097A1, “ORGANISMS PRODUCING LESS CROTONIC ACID” (Global Bioenergies, priority 2021, published 2025)
